Assay results reported in article PMC11079029, “Intramolecular autoinhibition regulates the selectivity of PRPF40A tandem WW domains for proline-rich motifs” (Nature Communications, 2024).

B1: HNRNPUL1 (protein, UniProt Q9BUJ2 1-856, looked up)
Heterogeneous nuclear …: MDVRRLKVNELREELQRRGLDTRGLKAELAERLQAALEAEEPDDERELDADDEPGRPGHINEEVETEGGSELEGTAQPPPPGLQPHAEPGGYSGPDGHYAMDNITRQNQFYDTQVIKQENESGYERRPLEMEQQQAYRPEMKTEMKQGAPTSFLPPEASQLKPDRQQFQSRKRPYEENRGRGYFEHREDRRGRSPQPPAEEDEDDFDDTLVAIDTYNCDLHFKVARDRSSGYPLTIEGFAYLWSGARASYGVRRGRVCFEMKINEEISVKHLPSTEPDPHVVRIGWSLDSCSTQLGEEPFSYGYGGTGKKSTNSRFENYGDKFAENDVIGCFADFECGNDVELSFTKNGKWMGIAFRIQKEALGGQALYPHVLVKNCAVEFNFGQRAEPYCSVLPGFTFIQHLPLSERIRGTVGPKSKAECEILMMVGLPAAGKTTWAIKHAASNPSKKYNILGTNAIMDKMRVMGLRRQRNYAGRWDVLIQQATQCLNRLIQIAARKKRNYILDQTNVYGSAQRRKMRPFEGFQRKAIVICPTDEDLKDRTIKRTDEEGKDVPDHAVLEMKANFTLPDVGDFLDEVLFIELQREEADKLVRQYNEEGRKAGPPPEKRFDNRGGGGFRGRGGGGGFQRYENRGPPGGNRGGFQNRGGGSGGGGNYRGGFNRSGGGGYSQNRWGNNNRDNNNSNNRGSYNRAPQQQPPPQQPPPPQPPPQQPPPPPSYSPARNPPGASTYNKNSNIPGSSANTSTPTVSSYSPPQPSYSQPPYNQGGYSQGYTAPPPPPPPPPAYNYGSYGGYNPAPYTPPPPPTAQTYPQPSYNQYQQYAQQWNQYYQNQGQWPPYYGNYDYGSYSGNTQGGTSTQ
B2: ATXN10 (protein, UniProt Q9UBB4 1-475, looked up)
Ataxin-10: MAAPRPPPARLSGVMVPAPIQDLEALRALTALFKEQRNRETAPRTIFQRVLDILKKSSHAVELACRDPSQVENLASSLQLITECFRCLRNACIECSVNQNSIRNLDTIGVAVDLILLFRELRVEQESLLTAFRCGLQFLGNIASRNEDSQSIVWVHAFPELFLSCLNHPDKKIVAYSSMILFTSLNHERMKELEENLNIAIDVIDAYQKHPESEWPFLIITDLFLKSPELVQAMFPKLNNQERVTLLDLMIAKITSDEPLTKDDIPVFLRHAELIASTFVDQCKTVLKLASEEPPDDEEALATIRLLDVLCEMTVNTELLGYLQVFPGLLERVIDLLRVIHVAGKETTNIFSNCGCVRAEGDISNVANGFKSHLIRLIGNLCYKNKDNQDKVNELDGIPLILDNCNISDSNPFLTQWVIYAIRNLTEDNSQNQDLIAKMEEQGLADASLLKKVGFEVEKKGEKLILKSTRDTPKP
B3: MEPCE (protein, UniProt Q7L2J0 1-689, looked up)
7SK snRNA methylphosphate …: MIEMAAEKEPFLVPAPPPPLKDESGGGGGPTVPPHQEAASGELRGGTERGPGRCAPSAGSPAAAVGRESPGAAATSSSGPQAQQHRGGGPQAQSHGEARLSDPPGRAAPPDVGEERRGGGGTELGPPAPPRPRNGYQPHRPPGGGGGKRRNSCNVGGGGGGFKHPAFKRRRRVNSDCDSVLPSNFLLGGNIFDPLNLNSLLDEEVSRTLNAETPKSSPLPAKGRDPVEILIPKDITDPLSLNTCTDEGHVVLASPLKTGRKRHRHRGQHHQQQQAAGGSESHPVPPTAPLTPLLHGEGASQQPRHRGQNRDAPQPYELNTAINCRDEVVSPLPSALQGPSGSLSAPPAASVISAPPSSSSRHRKRRRTSSKSEAGARGGGQGSKEKGRGSWGGRHHHHHPLPAAGFKKQQRKFQYGNYCKYYGYRNPSCEDGRLRVLKPEWFRGRDVLDLGCNVGHLTLSIACKWGPSRMVGLDIDSRLIHSARQNIRHYLSEELRLPPQTLEGDPGAEGEEGTTTVRKRSCFPASLTASRGPIAAPQVPLDGADTSVFPNNVVFVTGNYVLDRDDLVEAQTPEYDVVLCLSLTKWVHLNWGDEGLKRMFRRIYRHLRPGGILVLEPQPWSSYGKRKTLTETIYKNYYRIQLKPEQFSSYLTSPDVGFSSYELVATPHNTSKGFQRPVYLFHKARSPSH
B4: DDX20 (protein, UniProt Q9UHI6 1-824, looked up)
Probable ATP-dependent RNA …: MAAAFEASGALAAVATAMPAEHVAVQVPAPEPTPGPVRILRTAQDLSSPRTRTGDVLLAEPADFESLLLSRPVLEGLRAAGFERPSPVQLKAIPLGRCGLDLIVQAKSGTGKTCVFSTIALDSLVLENLSTQILILAPTREIAVQIHSVITAIGIKMEGLECHVFIGGTPLSQDKTRLKKCHIAVGSPGRIKQLIELDYLNPGSIRLFILDEADKLLEEGSFQEQINWIYSSLPASKQMLAVSATYPEFLANALTKYMRDPTFVRLNSSDPSLIGLKQYYKVVNSYPLAHKVFEEKTQHLQELFSRIPFNQALVFSNLHSRAQHLADILSSKGFPAECISGNMNQNQRLDAMAKLKHFHCRVLISTDLTSRGIDAEKVNLVVNLDVPLDWETYMHRIGRAGRFGTLGLTVTYCCRGEEENMMMRIAQKCNINLLPLPDPIPSGLMEECVDWDVEVKAAVHTYGIASVPNQPLKKQIQKIERTLQIQKAHGDHMASSRNNSVSGLSVKSKNNTKQKLPVKSHSECGIIEKATSPKELGCDRQSEEQMKNSVQTPVENSTNSQHQVKEALPVSLPQIPCLSSFKIHQPYTLTFAELVEDYEHYIKEGLEKPVEIIRHYTGPGDQTVNPQNGFVRNKVIEQRVPVLASSSQSGDSESDSDSYSSRTSSQSKGNKSYLEGSSDNQLKDSESTPVDDRISLEQPPNGSDTPNPEKYQESPGIQMKTRLKEGASQRAKQSRRNLPRRSSFRLQTEAQEDDWYDCHREIRLSFSDTYQDYEEYWRAYYRAWQEYYAAASHSYYWNAQRHPSWMAAYHMNTIYLQEMMHSNQ
B5: SF3B1 (protein, UniProt O75533 1-1304, looked up)
Splicing factor 3B subunit 1: MAKIAKTHEDIEAQIREIQGKKAALDEAQGVGLDSTGYYDQEIYGGSDSRFAGYVTSIAATELEDDDDDYSSSTSLLGQKKPGYHAPVALLNDIPQSTEQYDPFAEHRPPKIADREDEYKKHRRTMIISPERLDPFADGGKTPDPKMNARTYMDVMREQHLTKEEREIRQQLAEKAKAGELKVVNGAAASQPPSKRKRRWDQTADQTPGATPKKLSSWDQAETPGHTPSLRWDETPGRAKGSETPGATPGSKIWDPTPSHTPAGAATPGRGDTPGHATPGHGGATSSARKNRWDETPKTERDTPGHGSGWAETPRTDRGGDSIGETPTPGASKRKSRWDETPASQMGGSTPVLTPGKTPIGTPAMNMATPTPGHIMSMTPEQLQAWRWEREIDERNRPLSDEELDAMFPEGYKVLPPPAGYVPIRTPARKLTATPTPLGGMTGFHMQTEDRTMKSVNDQPSGNLPFLKPDDIQYFDKLLVDVDESTLSPEEQKERKIMKLLLKIKNGTPPMRKAALRQITDKAREFGAGPLFNQILPLLMSPTLEDQERHLLVKVIDRILYKLDDLVRPYVHKILVVIEPLLIDEDYYARVEGREIISNLAKAAGLATMISTMRPDIDNMDEYVRNTTARAFAVVASALGIPSLLPFLKAVCKSKKSWQARHTGIKIVQQIAILMGCAILPHLRSLVEIIEHGLVDEQQKVRTISALAIAALAEAATPYGIESFDSVLKPLWKGIRQHRGKGLAAFLKAIGYLIPLMDAEYANYYTREVMLILIREFQSPDEEMKKIVLKVVKQCCGTDGVEANYIKTEILPPFFKHFWQHRMALDRRNYRQLVDTTVELANKVGAAEIISRIVDDLKDEAEQYRKMVMETIEKIMGNLGAADIDHKLEEQLIDGILYAFQEQTTEDSVMLNGFGTVVNALGKRVKPYLPQICGTVLWRLNNKSAKVRQQAADLISRTAVVMKTCQEEKLMGHLGVVLYEYLGEEYPEVLGSILGALKAIVNVIGMHKMTPPIKDLLPRLTPILKNRHEKVQENCIDLVGRIADRGAEYVSAREWMRICFELLELLKAHKKAIRRATVNTFGYIAKAIGPHDVLATLLNNLKVQERQNRVCTTVAIAIVAETCSPFTVLPALMNEYRVPELNVQNGVLKSLSFLFEYIGEMGKDYIYAVTPLLEDALMDRDLVHRQTASAVVQHMSLGVYGFGCEDSLNHLLNYVWPNVFETSPHVIQAVMGALEGLRVAIGPCRMLQYCLQGLFHPARKVRDVYWKIYNSIYIGSQDALIAHYPRIYNDDKNTYIRYELDYIL

Test system: GFP-tagged PRPF40A-Nter-MUT
Assay: SILAC GFP-immunoprecipitation with quantitative mass spectrometry, mutant construct
Format: binding, human (Hela cells)
Conditions: quantitative MS, Hela cells, protein by gene name
Experimental: The PRPF40A N-terminal region (isoform 2, residues 1-221) was PCR-amplified from RPE1 cDNA (ATCC, Cat# CRL-4000) cDNA. The sequence was amplified in two fragments and both fragments were combined by overhang. All PCRs were carried out using Q5 Polymerase (NEB) according to manufacturer’s protocol. The resulting PRPF40A N-terminal region was cloned into a GFP-expressing pcDNA5 vector (see pcDNA5 GFP vector in ref. [28]) using Q5 Site-Directed Mutagenesis Kit (NEB). Nter-MUT, containing the PPVP/PALPP motifs changed to AAAA/AAAAA, was obtained by mutating the N-ter-WW12-containing plasmid with Q5 site-directed mutagenesis. Plasmids were transformed into DH5alpha chemically competent cells. After culturing, DNA isolation was performed with either ZymoPURE Plasmid Miniprep Kit (Zymo Research) or QIAGEN Plasmid Plus Midi Kit (Qiagen). The sequence was confirmed by Sanger Sequencing (GATC Eurofins). All used oligonucleotides are shown in Supplementary Table 6.
Hela cells (ATCC, Cat# CCL-2, RRID:CVCL_0030) were cultured in DMEM SILAC medium (Thermo Fisher) supplemented with 10% filtered FBS (Sigma-Aldrich) and 1% penicillin-streptomycin (Thermo-Fisher). The SILAC medium contains either light (Arg0, Lys0), medium (Arg6, Lys4) or heavy (Arg10, Lys8) isotopes (Cambridge Isotopes Laboratories). Hela cells were cultivated for 14 days in SILAC medium to assure sufficient isotope incorporation. For transfection, 7 × 10^6 Hela cells were seeded in a 15 cm culture dish in 20 ml of respective SILAC medium and grown for 24 h. The cells were then transfected with 20 µg of plasmids expressing either GFP (Control), GFP-tagged N-ext-WW12 or GFP-tagged-N-ext-WW12-MUT utilizing 64 µl FuGENE (Promega) (ratio 1:3.2), according to manufacturer’s protocol.
24 h post-transfection, cells were washed twice in ice-cold PBS and harvested in 1 ml mRIPA buffer (50 mM Tris, 150 mM NaCl, 1 mM EDTA, 1% NP-40, 0.1% Na-deoxycholate), supplemented with 2 µl Turbo-DNase (Thermo Fisher) and 3 µl protease-inhibitor cocktail cOmplete (Sigma-Aldrich). Cell lysates were cleared by centrifugation at 16,000 × g, 4 °C, 15 min and concentration was measured using Pierce BCA Protein Assay kit (Thermo Scientific). The expressed constructs were pulled down by incubating 2.5 mg of lysate with 20 μl GFP-nanobody agarose beads (ChromoTek, GTA-20) for 1 h at 4 °C under constant agitation. Subsequently, beads were washed three times with mRIPA buffer without supplements, then eluted in 1X NuPAGE LDS sample buffer (Thermo Scientific). To detach the proteins from the beads, the eluate was heated to 70 °C for 10 min To evaluate the success of the immunoprecipitation, input (1%) and IP samples were analyzed on a NuPAGE 4–12% Bis-Tris-Acrylamide gel (Thermo Fisher) using NuPAGE MOPS SDS running buffer (Thermo Fisher). Proteins were stained using Sypro Ruby protein gel stain (Thermo Fisher) according to manufacturer’s protocol.
The eluted proteins of three SILAC states (light, medium, heavy) were combined. The proteins were then reduced in DTT, alkylated in iodoacetamide, and purified using the SP3 paramagnetic bead approach. This was followed by overnight enzymatic digestion using trypsin (1 µg per sample) in 50 mM ammonium bicarbonate at 37 °C. The peptide solution was then purified by solid phase extraction in C18 StageTips[99].
Peptides were separated by online reverse phase liquid chromatography using the EASY-nLC 1000 system (Thermo Scientific) in a 30-cm analytical column (inner diameter: 75 μm; heated at 50 °C) packed in-house with ReproSil-Pur 120 C18-AQ 1.9-μm beads (Dr. Maisch GmbH). The gradient separation was performed through a 105-min non-linear gradient of 1.6–32% acetonitrile with 0.1% formic acid at a nanoflow rate of 225 nl/min. The eluted peptides were sprayed directly by electrospray ionization into a Q Exactive Plus Orbitrap mass spectrometer (Thermo Scientific). […]

Row | Molecule | Immunoprecipitation enrichment MUT vs WT, log2 FC
1 | B1 | 1.072
2 | B2 | 1.57
3 | B3 | 1.321
4 | B4 | 1.113
5 | B5 | 0.9931
